Experimental data from PMC1540706 (2006).
Residue numbers refer to the chain shown, from its start. Names may count otherwise.

B1: Epsin1-MD (protein)
chain: TGGKEESSLMDLADVFTTPAPPQASDPWGGPASVPTAVPVAAAASDPWGAPAVPPAADPWGGAAPTPASGDPWRPAAPTGPSVDPWGGTPAPAAGEGPTSDPWGSADGGAPVSGPPSSDPWAPAPAFSDPWGGSPAKPSSNGTAVGGFDTEPD
B2: amphiphysin DNF 12mer peptide (peptide)
chain: SFFEDNFVPEIS
B3: β-arrestin P-long peptide (peptide)
peptide: DDDIVFEDFARQRLKGMKDD
B4: 6× His human Eps15-MD (530–791) (domain or fragment)
chain: STSSSETANLNEHVEGQSNLESEPIHQESPARSSPELLPSGVTDENEVTTAVTEKVCSELDNNRHSKEEDPFNVDSSSLTGPVADTNLDFFQSDPFVGSDPFKDDPFGKIDPFGGDPFKGSDPFASDCFFRQSTDPFATSSTDPFSAANNSSITSVETLKHNDPFAPGGTVVAASDSATDPFASVFGNESFGGGFADFSTLSKVNNEDPFRSATSSSVSNVVITKNVFEETSVKSEDEPPALPPKIGTPTRPCPLPPGKRSI
B5: Eps15 P-short peptide (peptide)
peptide: SFGDGFADFSTL
B6: human β2-appendage (700–937) used for ITC (domain or fragment)
chain: IGMAPGGYVAPKAVWLPAVKAKGLEISGTFTHRQGHIYMEMNFTNKALQHMTDFAIQFNKNSFGVIPSTPLAIHTPLMPNQSIDVSLPLNTLGPVMKMEPLNNLQVAVKNNIDVFYFSCLIPLNVLFVEDGKMERQVFLATWKDIPNENELQFQIKECHLNADTVSSKLQNNNVYTIAKRNVEGQDMLYQSLKLTNGIWILAELRIQPGNPNYTLSLKCRAPEVSQYIYQVYDSILKN
B7: human β2-appendage (700–937), top site mutant used for ITC (domain or fragment)
chain: B6 chain with Y189V
B8: human β2-appendage (700–937) R879A used for ITC (domain or fragment)
chain: B6 chain with R180A

How the values were obtained:
Assay in all cases: ITC
[1] = target: B6
[2] = target: AP2 α-appendage appendage (Mus musculus, UniProt P17427)
[3] = target: B8
[4] = target: T1, human β2-appendage (700–937), side site mutant used for ITC (human, UniProt P63010 700-937)
T1 chain: B6 chain with Y116A

[5] = target: B7
Epsin P4 = target: Epsin P4
Eps15 P-long peptide = Eps15 P-long peptide (UniProt P42566)
ARH peptide = ARH peptide (UniProt Q5SW96)
Epsin P1 = target: Epsin P1
epsinR peptide = epsinR peptide (UniProt Q14677)

AP2 α-appendage appendage, sequence (P17427 701-938): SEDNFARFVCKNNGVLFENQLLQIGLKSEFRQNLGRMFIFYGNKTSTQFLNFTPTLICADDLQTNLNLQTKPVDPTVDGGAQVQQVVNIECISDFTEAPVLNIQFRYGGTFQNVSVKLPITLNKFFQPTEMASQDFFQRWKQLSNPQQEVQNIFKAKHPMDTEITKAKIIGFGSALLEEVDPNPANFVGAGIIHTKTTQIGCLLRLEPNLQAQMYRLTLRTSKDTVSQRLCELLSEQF

How did the Kd [1] turn out when B1 was run?
The Kd was 35 µM.

With B2 as the binder, how does the Kd [2] read?
Its Kd is 2.5 µM.

What does the source list for B3?
Kd [3]: 0.17 µM; Kd [4]: 1.7 µM

Which results are given for B4?
Kd [1]: 18 µM; Kd [5]: 11 µM

With B5 as the binder, how does the Kd [5] read?
Its Kd is 59 µM.

What does the source list for B6?
Kd (Epsin P4): 160 µM; Kd (Eps15 P-long peptide): 12 µM; Kd (ARH peptide): 4.7 µM; Kd (Epsin P1): 131 µM

B7 was tested. Which Kd (epsinR peptide) did it give?
The Kd was 77 µM.

B8 was tested. Which Kd (ARH peptide) did it give?
The Kd was 5.5 µM.
